The source of these data is paper PMC6582323 (Nucleic Acids Research, 2019).

The target in data set [1] is T1, Cyanothece PCC7424 McdA(D38A) (Cyanothece sp. PCC 7424, UniProt B7KMS4 1-258, D38A).
T1 sequence (looked up): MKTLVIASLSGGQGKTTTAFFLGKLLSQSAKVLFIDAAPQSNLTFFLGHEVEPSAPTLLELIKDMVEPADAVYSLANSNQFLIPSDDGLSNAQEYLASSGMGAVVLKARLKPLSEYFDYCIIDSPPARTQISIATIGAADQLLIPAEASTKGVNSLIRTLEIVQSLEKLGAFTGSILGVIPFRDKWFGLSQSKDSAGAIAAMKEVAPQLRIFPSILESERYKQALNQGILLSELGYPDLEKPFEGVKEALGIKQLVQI
The experiment in a line: fluorescence polarisation. A general note: Polarisation of emitted light reports the rotation of a fluorescent probe.

The data set “crystal structure” concerns the molecule itself. The experiment in a line: crystal structure.

B1: Cyanothece PCC7424 McdB (wild type) (natural protein, Cyanothece sp. PCC 7424, UniProt B7KMS5 1-156, looked up)
chain: MSNNALDRLINKQKPKVPPRNDVVSESVSNDIKTQGQQELNTSLPPSDTKATPEEMPTSHESETSLSQDQKPKLSPDTFETVRNTIRIESEVDESLRQLCHEERITKETWLEAAYLYLCEKPEELAQVIQLAQERLSQRKAIADYKRAKTMQERFL
B1: the Kd (in general, the concentration at which binding is half-saturated) in data set [1] was 1100 nM. Further, in the data set “crystal structure”, the stoichiometry N (usually a count of units in the complex or per binding partner) was determined as 2.
